Test results reported in article PMC3784395, “Ectopic Expression of WUS in Hypocotyl Promotes Cell Division via GRP23 in Arabidopsis”.

T1: GST-WUS (WUSCHEL) (UniProt Q9SB92 1-292)
T1 sequence: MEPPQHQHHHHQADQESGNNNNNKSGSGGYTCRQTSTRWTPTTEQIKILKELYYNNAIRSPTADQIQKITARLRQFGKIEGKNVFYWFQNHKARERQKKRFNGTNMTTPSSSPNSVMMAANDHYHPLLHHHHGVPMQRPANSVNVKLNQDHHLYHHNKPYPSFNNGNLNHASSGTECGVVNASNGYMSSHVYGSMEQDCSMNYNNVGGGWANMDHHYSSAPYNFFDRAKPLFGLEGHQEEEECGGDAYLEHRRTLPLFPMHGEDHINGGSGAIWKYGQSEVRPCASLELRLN

B1: GRP23 promoter mutant (both TAAT to GGGG) (dsDNA)
DNA 1: CATATATCTTGGGGACTGTGGGGGATCTTTCTTCAAAAAC
DNA 2: GTTTTTGAAGAAAGATCCCCCACAGTCCCCAAGATATATG
B2: GRP23 promoter probe wt (-748 to -709) (dsDNA)
DNA 1: CATATATCTTTAATACTGTTAATGATCTTTCTTCAAAAAC
DNA 2: GTTTTTGAAGAAAGATCATTAACAGTATTAAAGATATATG

Assays:
GST-WUS (WUSCHEL) [1] = target: T1, GST-WUS (WUSCHEL); experiment: competition; unlabeled mutant competitor up to 800x excess vs labeled N1; Lightshift Chemiluminescent EMSA kit (Pierce), per manufacturer; buffer, salt, pH and temperature not stated; conditions: protein: recombinant; chain copies: 2; blunt
GST-WUS (WUSCHEL) [2] = target: T1, GST-WUS (WUSCHEL); experiment: EMSA; Lightshift Chemiluminescent EMSA kit (Pierce), per manufacturer; buffer, salt, pH and temperature not stated; conditions: protein: recombinant; chain copies: 2; label: 3' biotin on both strands (probe); blunt

| Binder | binding result (GST-WUS (WUSCHEL) [1]) | binding result (GST-WUS (WUSCHEL) [2]) |
| --- | --- | --- |
| B1 | no binding | – |
| B2 | – | binds |
